Experimental data taken from the supplement of paper PMC9876800.

Test system: peptide library, one residue held at a place counted from the S/T acceptor
Assay: relative phosphorylation of the sub-library (ratio to the mean residue at this position); higher = residue favoured
Outline: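 Spots on streptavidin membranes were phosphorimaged and quantified by densitometry to measure phosphorylation of biotinylated degenerate peptide sub-libraries by purified recombinant kinases, human or orthologue constructs. The reactions ran in 384-well plates for 90 min under kinase-specific conditions, with peptides at 50 μM and 50 μM ATP spiked with γ-32P-ATP. Relative sub-library phosphorylation is the ratio to the mean residue at that position.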

Sequence of MYLK, construct: aa1425-1771, human (Q15746 1425-1771, looked up): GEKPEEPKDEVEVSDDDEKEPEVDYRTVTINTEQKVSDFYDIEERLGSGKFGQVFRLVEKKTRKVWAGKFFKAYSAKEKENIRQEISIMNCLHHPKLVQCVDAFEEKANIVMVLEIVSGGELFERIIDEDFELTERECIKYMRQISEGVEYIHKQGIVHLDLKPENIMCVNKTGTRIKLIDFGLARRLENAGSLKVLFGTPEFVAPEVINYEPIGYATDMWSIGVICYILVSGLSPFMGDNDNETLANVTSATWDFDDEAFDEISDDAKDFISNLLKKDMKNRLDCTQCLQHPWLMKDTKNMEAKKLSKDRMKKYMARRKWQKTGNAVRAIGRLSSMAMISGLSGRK

MYLK, construct: aa1425-1771, human (from UniProt Q15746)
relative phosphorylation
Conditions | A fixed | D fixed | E fixed | F fixed | G fixed | H fixed | I fixed | K fixed | L fixed | M fixed
at +1 | 0.785 | 0.578 | 0.631 | 0.917 | 0.781 | 0.706 | 1.49 | 1.36 | 1.01 | 1.51
at +2 | 0.75 | 0.935 | 0.874 | 1.27 | 0.599 | 0.914 | 0.99 | 1.19 | 1.09 | 1.26
at +3 | 0.611 | 0.68 | 0.625 | 1.37 | 0.713 | 0.744 | 2.08 | 1.03 | 1.65 | 1.21
at +4 | 0.755 | 0.835 | 0.747 | 1.15 | 0.906 | 1.28 | 0.946 | 1.18 | 0.952 | 0.946
at -1 | 0.803 | 0.963 | 0.696 | 0.87 | 0.933 | 1.06 | 0.789 | 1.27 | 1.13 | –
at -2 | 0.95 | 0.38 | 0.378 | 0.584 | 0.631 | 1.01 | 0.499 | 1.93 | 0.505 | –
at -3 | 0.781 | 0.392 | 0.403 | 0.653 | 0.586 | 0.876 | 0.7 | 1.63 | 0.619 | –
at -4 | 0.743 | 0.516 | 0.586 | 1.45 | 0.819 | 0.94 | 1.06 | 1.41 | 0.898 | –
at -5 | 0.704 | 0.472 | 0.483 | 1.21 | 0.737 | 0.916 | 1.06 | 1.21 | 1.08 | –
